One substance from publication PMC10332591 can be followed below.

The experiment has as its target human CD64 (FcγRI) (human) (UniProt P12314). Kind of experiment: BLI; Octet RED96; biotinylated human CD64, CD32a or CD16a loaded on streptavidin biosensors; serially diluted ARX788 drug substance in HBS-P+ buffer; global fit, Langmuir 1:1 model; for CD32a and CD16a only 3.0 seconds of the dissociation step fitted to avoid avidity effects. On the technique in general: BLI is a label-free optical method that tracks binding on a fibre tip over time.

Where “and” joins values, the source holds several entries; their conditions need not be identical. Equal values may be shown once.

Chain of human CD64 (FcγRI) (human) (P12314 16-374): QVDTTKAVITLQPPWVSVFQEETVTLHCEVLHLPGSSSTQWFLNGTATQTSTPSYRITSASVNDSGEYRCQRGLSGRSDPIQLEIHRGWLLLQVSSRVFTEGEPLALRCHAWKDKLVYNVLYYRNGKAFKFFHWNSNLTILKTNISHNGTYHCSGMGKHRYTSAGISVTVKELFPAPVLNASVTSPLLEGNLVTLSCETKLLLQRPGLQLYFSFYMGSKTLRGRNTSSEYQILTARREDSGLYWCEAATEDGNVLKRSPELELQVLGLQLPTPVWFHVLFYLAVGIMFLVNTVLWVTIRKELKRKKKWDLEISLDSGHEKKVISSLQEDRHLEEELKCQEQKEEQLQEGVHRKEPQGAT

As for ARX788 (antibody), the KD ratio (Sample/RS) is 0.98 and 0.89 and 1.
